Test results as given in the supplement of paper PMC7877785.
± gives the uncertainty stated by the source.

Test: self-splicing fitness, log relative to wild type (ln ratio); higher = more splicing; Tetrahymena group I intron in knt gene, E. coli kanamycin selection, DiMSum; sequences stand for … in CUCUCU…GGAGGGAAAAGUUAUCAGGCAUGCACCUGGUAGCUAGUCUUUAAACCAAUAGAUUGCAUCGGUUUAAAAGGCAAGACCGUCAAAUUGCGGGAAAGGGGUCAACAGCCGUUCAGUACCAAGUCUCAGGGGAAACUUUGAGAUGGCCUUGCAAAGGGUAUGGUAAUAAGCUGACGGACAUGGUCCUAACCACGCAGCCAAGUCCUAAGUCAACAGAUCUUCUGUUGAUAUGGAUGCAGUUCACAGACUAAAUGUCGGUCGGGGAAGAUGUAUUCUUCUCAUAAGAUAUAGUCGGACCUCUCCUUAAUGGGAGCUAGCGGAUGAAGUGAUGCAACACUGGAGCCGCUGGGAACUAAUUUGUAUGCGAAAGUAUAUUGAUUAGUUUUGGAGUACUCGUGGUCG
In short: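 Library with all eight P1ex-region intron nucleotides randomised, intron inside the knt kanamycin-resistance gene on pET-22b(+), in E. coli BL21(DE3). Cells grew overnight at 37°C or 30°C on LB agar with or without 25 μg/mL kanamycin (plus 100 μg/mL carbenicillin, 50 μM IPTG, 0.2% rhamnose), in six replicate transformations. Pooled colonies were amplicon-sequenced on Illumina HiSeq 2500. DiMSum fitness is the error-weighted combination of wild-type-normalised replicate fold changes, kanamycin versus none.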

Sequence	self-splicing fitness (ln) (30 °C)	self-splicing fitness (ln) (37 °C)
UUUCAGCAAUAUUACGGAUA	-0.515 ± 0.11	-0.565 ± 0.11
UUUCAGCAAUAUUACGGAUU	-1.63 ± 0.083	-0.55 ± 0.097
UUUCAGCAAUAUUACGGCAC	-1.79 ± 0.19	-2.33 ± 0.24
UUUCAGCAAUAUUACGGCGA	-0.344 ± 0.093	0.167 ± 0.13
UUUCAGCAAUAUUACGGCUC	-1.77 ± 0.42	0.0864 ± 0.23
UUUCAGCAAUAUUACGGUCU	-1.45 ± 0.086	-0.667 ± 0.087
UUUCAGCAAUAUUACGUCUU	-2.52 ± 0.17	-1.36 ± 0.13
UUUCAGCAAUAUUACGUGAC	-2.99 ± 0.22	-1.73 ± 0.48
UUUCAGCAAUAUUACGUUCG	-1.09 ± 0.085	-0.545 ± 0.13
UUUGAGCAAUAUUACGAAAG		-2.49 ± 0.23
UUUGAGCAAUAUUACGAAGG	-3.13 ± 0.34	-1.66 ± 0.31
UUUGAGCAAUAUUACGACAG	-2.8 ± 0.15	-1.81 ± 0.18
UUUGAGCAAUAUUACGAGAU	-3.65 ± 0.42	-3.12 ± 0.37
UUUGAGCAAUAUUACGAUCG	-2.23 ± 0.23	-1.81 ± 0.29
UUUGAGCAAUAUUACGCACG		-1.45 ± 0.42
UUUGAGCAAUAUUACGCAUA		-1.01 ± 0.29
UUUGAGCAAUAUUACGCGAA	-2.96 ± 0.34	-1.71 ± 0.2
UUUGAGCAAUAUUACGGAUU	-3.69 ± 0.25	-2.31 ± 0.2
UUUGAGCAAUAUUACGGUGU		-2.7 ± 0.41
UUUGAGCAAUAUUACGUACU	-3.28 ± 0.43	
UUUGAGCAAUAUUACGUAUA	-2.78 ± 0.3	-2.67 ± 0.36
UUUGAGCAAUAUUACGUCCA		-0.659 ± 0.37
UUUGAGCAAUAUUACGUCCU	-3.03 ± 0.27	-1.77 ± 0.2
UUUGAGCAAUAUUACGUCGA	-2.46 ± 0.2	-0.692 ± 0.24

Sequence	self-splicing fitness (ln) (30 °C)	self-splicing fitness (ln) (37 °C)
UUUGAGCAAUAUUACGUUCA		-2.38 ± 0.36
UUUUAGCAAUAUUACGAAUA	-1.26 ± 0.25	-1.04 ± 0.16
UUUUAGCAAUAUUACGAAUU	-3.26 ± 0.38	-1.23 ± 0.29
UUUUAGCAAUAUUACGAGGA	-1.04 ± 0.17	-1.3 ± 0.21
UUUUAGCAAUAUUACGAGUA	-1.55 ± 0.27	-0.821 ± 0.29
UUUUAGCAAUAUUACGAUAC	-3.18 ± 0.45	
UUUUAGCAAUAUUACGCACG	-0.889 ± 0.13	-0.745 ± 0.17
UUUUAGCAAUAUUACGCGCA	-0.13 ± 0.11	-0.0853 ± 0.12
UUUUAGCAAUAUUACGCGGC		-2.34 ± 0.39
UUUUAGCAAUAUUACGCGUC		-1.23 ± 0.25
UUUUAGCAAUAUUACGGACA	-1.41 ± 0.18	-0.668 ± 0.17
UUUUAGCAAUAUUACGGACG	-0.75 ± 0.2	-0.45 ± 0.2
UUUUAGCAAUAUUACGGCGG	-0.446 ± 0.16	-0.137 ± 0.15
UUUUAGCAAUAUUACGGUAG	-1.6 ± 0.18	-1.74 ± 0.16
UUUUAGCAAUAUUACGGUCA	-1.25 ± 0.17	-0.069 ± 0.13
UUUUAGCAAUAUUACGGUGC	-3.63 ± 0.24	-2.98 ± 0.38
UUUUAGCAAUAUUACGGUUA	-1.54 ± 0.2	0.105 ± 0.13
UUUUAGCAAUAUUACGUAAA	-1.52 ± 0.17	-0.431 ± 0.23
UUUUAGCAAUAUUACGUAGG	-1.99 ± 0.11	-0.229 ± 0.13
UUUUAGCAAUAUUACGUCAG	-3.93 ± 0.47	-0.297 ± 0.27
UUUUAGCAAUAUUACGUCGG	-1.95 ± 0.15	-0.321 ± 0.17
UUUUAGCAAUAUUACGUGGA	-2.5 ± 0.18	-0.992 ± 0.11
UUUUAGCAAUAUUACGUUAA	-2.45 ± 0.37	-2.52 ± 0.48
